Assay results: paper PMC4626060 (Molecular Biology of the Cell, 2015)

T1: full-length glutathione S-transferase (GST)-Mps1 (UniProt P33981 1-857)
T1 sequence: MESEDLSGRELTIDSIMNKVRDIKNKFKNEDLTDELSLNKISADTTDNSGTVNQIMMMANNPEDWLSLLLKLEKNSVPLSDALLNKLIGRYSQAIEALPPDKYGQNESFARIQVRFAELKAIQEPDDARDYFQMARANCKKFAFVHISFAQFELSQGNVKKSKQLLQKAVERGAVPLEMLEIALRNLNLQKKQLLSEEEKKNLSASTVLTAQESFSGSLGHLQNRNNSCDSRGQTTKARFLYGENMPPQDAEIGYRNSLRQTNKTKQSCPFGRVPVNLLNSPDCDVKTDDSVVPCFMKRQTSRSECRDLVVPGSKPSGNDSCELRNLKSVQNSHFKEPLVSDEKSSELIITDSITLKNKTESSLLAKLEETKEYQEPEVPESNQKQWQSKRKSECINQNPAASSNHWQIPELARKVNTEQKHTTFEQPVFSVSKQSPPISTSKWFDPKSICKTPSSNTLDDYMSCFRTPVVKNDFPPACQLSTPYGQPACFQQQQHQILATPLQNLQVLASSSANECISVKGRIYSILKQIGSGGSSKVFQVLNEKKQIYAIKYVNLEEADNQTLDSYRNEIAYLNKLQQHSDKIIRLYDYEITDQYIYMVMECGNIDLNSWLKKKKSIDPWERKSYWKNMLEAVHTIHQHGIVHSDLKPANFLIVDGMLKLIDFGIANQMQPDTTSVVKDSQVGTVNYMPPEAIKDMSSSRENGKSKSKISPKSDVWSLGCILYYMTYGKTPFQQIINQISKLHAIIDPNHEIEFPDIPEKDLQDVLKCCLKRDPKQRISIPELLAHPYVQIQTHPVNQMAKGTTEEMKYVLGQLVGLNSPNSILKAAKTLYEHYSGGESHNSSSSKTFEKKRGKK


Biological target: T1, full-length glutathione S-transferase …
Experiment: pull-down

Binder | fold binding to GST-Mps1 on coincubation with Cetn3 against Cetn2 alone | fold binding to GST-Mps1 with 5 mM MgCl2 against without
recombinant His-Cetn2 (natural protein) MASNFKKANMASSSQRKRMSPKPELTEEQKQEIREAFDLFDADGTGTIDVKELKVAMRALGFEPKKEEIKKMISEIDKEGTGKMNFGDFLTVMTQKMSEKDTKEEILKAFKLFDDDETGKISFKNLKRVAKELGENLTDEELQEMIDEADRDGDGEVSEQEFLRIMKKTSLY | 3.39 ± 1.96 fold | 
recombinant His-Cetn3 (natural protein) MSLALRSELVVDKTKRKKRRELSEEQKQEIKDAFELFDTDKDEAIDYHELKVAMRALGFDVKKADVLKILKDYDREATGKITFEDFNEVVTDWILERDPHEEILKAFKLFDDDDSGKISLRNLRRVARELGENMSDEELRAMIEEFDKDGDGEINQEEFIAIMTGDI |  | 2.59 ± 0.91 fold
